For assay [1], the target named is T1, recombinant human nectin-4 (human, UniProt Q96NY8 32-349).
T1 chain: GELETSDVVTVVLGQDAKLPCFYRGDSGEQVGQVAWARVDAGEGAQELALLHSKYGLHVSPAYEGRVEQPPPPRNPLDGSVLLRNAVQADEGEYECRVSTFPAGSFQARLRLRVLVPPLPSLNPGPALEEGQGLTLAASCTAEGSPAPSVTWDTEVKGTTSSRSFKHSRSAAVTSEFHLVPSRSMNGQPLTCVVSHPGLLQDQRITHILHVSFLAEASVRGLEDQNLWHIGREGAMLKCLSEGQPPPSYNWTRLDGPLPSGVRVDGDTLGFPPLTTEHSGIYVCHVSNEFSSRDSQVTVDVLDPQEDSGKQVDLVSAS
The assay can be described thus: FP.

Assay [2] deals with T1, recombinant human nectin-4. The assay is described as follows: SPR. In general terms: Surface plasmon resonance follows binding to a sensor surface in real time, without labels.
Assay [3] has as its target T1, recombinant human nectin-4. The assay can be described thus: SPR.

The text below walks through data of article PMC12557367 (2025).

Numbered stars: 1 amine (or outer) side, 2 acyl side, 3 side chain; on linkers, the order of the positions; unused ones are H or OH. Bridge positions count the residues as written; N and C are the ends. Square brackets hold non-standard residues; d marks the D form. * marks the point of attachment. (R)‑NODAGA = O=C(O)CN1CCN(CC(=O)O)CCN([C@H](CCC(=O)*)C(=O)O)CC1; DOTA = O=C(O)CN1CCN(CC(=O)O)CCN(CC(=O)*)CCN(CC(=O)O)CC1; TATA = O=C(CC[*:1])N1CN(C(=O)CC[*:2])CN(C(=O)CC[*:3])C1; Cys(et) = S-ethylcysteine, CCSC[C@H](N[*:1])C(=O)[*:2]; Ser(et) = O-ethylserine, CCOC[C@H](N[*:1])C(=O)[*:2]; 1Nal = N[C@@H](Cc1cccc2ccccc12)C(=O)O; 2Nal = N[C@@H](Cc1ccc2ccccc2c1)C(=O)O; Hyp = O=C(O)[C@@H]1C[C@@H](O)CN1; hArg = N=C(N)NCCCC[C@H](N)C(=O)O; Met(O) = CS(=O)CC[C@H](N)C(=O)O; SeMet = C[Se]CC[C@H](N)C(=O)O; Nle = CCCC[C@H](N)C(=O)O

B1: 8a (peptide)
chain: {(R)‑NODAGA}-CP[2Nal][dD]CMRDWSTP[Hyp]WC-NH2
modifications: linker 1-5-15 via TATA
For orientation: IC50 means the point on the concentration scale where inhibition reaches its midpoint. On to B1, for which the IC50 in assay [1] is 0.479 µM.

B2: 8d (N188) (peptide)
chain: {DOTA}-CP[2Nal][dD]CMRDWSTP[Hyp]WC-OH
modifications: linker 1-5-15 via TATA
In the case of B2, the IC50 in assay [1] is 4.22 µM.

B3: 9 (peptide)
chain: {(R)‑NODAGA}-CP[2Nal][dD]CM[hArg]DWSTP[Hyp]WC-NH2
modifications: linker 1-5-15 via TATA
For orientation: koff means the rate constant with which the complex falls apart. As usually defined, the Kd is the equilibrium constant for the complex coming apart. Take B3: the 50% inhibitory concentration (IC50) in assay [1] is 0.27 µM. For the same molecule, the off-rate (koff) in assay [2] was found to be 0.0361 s⁻¹. Besides, in assay [3], the equilibrium dissociation constant (Kd) is 0.00285 µM.

B4: 1c (peptide)
chain: H-CP[1Nal][dD]CM[hArg]DWSTP[Hyp]WC-NH2
modifications: linker 1-5-15 via TATA
Consider B4, for which the IC50 in assay [1] is 0.0518 µM.

B5: natCu-3a (peptide)
chain: {(R)‑NODAGA}-CP[1Nal][dD]C[Nle][hArg]DWSTP[Hyp]WC-NH2
modifications: linker 1-5-15 via TATA; also: NODAGA complexed with natCu
Regarding B5, the concentration for half-maximal inhibition (IC50) in assay [1] was found to be 0.0454 µM.

B6: 2 (peptide)
chain: {(R)‑NODAGA}-CP[1Nal][dD]C[Met(O)][hArg]DWSTP[Hyp]WC-NH2
modifications: linker 1-5-15 via TATA
For B6, in assay [1], the IC50 was 0.568 µM.

B7: 1d (BCY8126) (peptide)
chain: Ac-CP[1Nal][dD]CM[hArg]DWSTP[Hyp]WC-NH2
modifications: linker 1-5-15 via TATA
As to B7, the IC50 in assay [1] turned out to be 0.0347 µM.

B8: natCu-1e (peptide)
chain: {(R)‑NODAGA}-CP[1Nal][dD]CM[hArg]DWSTP[Hyp]WC-NH2
modifications: linker 1-5-15 via TATA; also: NODAGA complexed with natCu
In the case of B8, in assay [1], the 50% inhibitory concentration (IC50) came to 0.0237 µM.

B9: 7 (peptide)
chain: {(R)‑NODAGA}-CP[1Nal][dD]C[Cys(et)][hArg]DWSTP[Hyp]WC-NH2
modifications: linker 1-5-15 via TATA
SMILES: CCSC[C@@H]1NC(=O)[C@@H]2CSCCC(=O)N3CN(CN(C3)C(=O)CCSC[C@H](NC(=O)CC[C@H](C(=O)O)N3CCN(CC(=O)O)CCN(CC(=O)O)CC3)C(=O)N3CCC[C@H]3C(=O)N[C@@H](Cc3cccc4ccccc34)C(=O)N[C@H](CC(=O)O)C(=O)N2)C(=O)CCSC[C@@H](C(N)=O)NC(=O)[C@H](Cc2c[nH]c3ccccc23)NC(=O)[C@@H]2C[C@@H](O)CN2C(=O)[C@@H]2CCCN2C(=O)[C@H]([C@@H](C)O)NC(=O)[C@H](CO)NC(=O)[C@H](Cc2c[nH]c3ccccc23)NC(=O)[C@H](CC(=O)O)NC(=O)[C@H](CCCCNC(=N)N)NC1=O
For the molecule B9, the 50% inhibitory concentration (IC50) in assay [1] was found to be 0.151 µM.

B10: natGa-1e (peptide)
chain: {(R)‑NODAGA}-CP[1Nal][dD]CM[hArg]DWSTP[Hyp]WC-NH2
modifications: linker 1-5-15 via TATA; also: NODAGA complexed with natGa
For the molecule B10, the concentration for half-maximal inhibition (IC50) in assay [1] is 0.203 µM.

B11: 8c (peptide)
chain: {DOTA}-CP[2Nal][dD]CMRDWSTP[Hyp]WC-NH2
modifications: linker 1-5-15 via TATA
Regarding B11, the IC50 in assay [1] stood at 3.29 µM.

B12: 1e (peptide)
chain: {(R)‑NODAGA}-CP[1Nal][dD]CM[hArg]DWSTP[Hyp]WC-NH2
modifications: linker 1-5-15 via TATA
Turning to B12, the half-maximal inhibitory concentration (IC50) in assay [1] was 0.0356 µM.

B13: 1f (peptide)
chain: {DOTA}-CP[1Nal][dD]CM[hArg]DWSTP[Hyp]WC-NH2
modifications: linker 1-5-15 via TATA
On to B13, for which the IC50 in assay [1] was found to be 0.177 µM.

B14: 3b (peptide)
chain: Ac-CP[1Nal][dD]C[Nle][hArg]DWSTP[Hyp]WC-NH2
modifications: linker 1-5-15 via TATA
In the case of B14, the IC50 in assay [1] was determined as 0.0315 µM.

B15: 3a (peptide)
chain: {(R)‑NODAGA}-CP[1Nal][dD]C[Nle][hArg]DWSTP[Hyp]WC-NH2
modifications: linker 1-5-15 via TATA
As to B15, in assay [1], the IC50 stood at 0.0416 µM.

B16: 10 (peptide)
chain: {(R)‑NODAGA}-CP[1Nal][dD]CMRDWSTP[Hyp]WC-NH2
modifications: linker 1-5-15 via TATA
With B16, the IC50 in assay [1] stood at 0.0321 µM. Also, in assay [2], the koff was 0.00308 s⁻¹.

B17: 5 (peptide)
chain: {(R)‑NODAGA}-CP[1Nal][dD]C[SeMet][hArg]DWSTP[Hyp]WC-NH2
modifications: linker 1-5-15 via TATA
For B17, the IC50 in assay [1] came out at 0.0487 µM.

B18: 6 (peptide)
chain: {(R)‑NODAGA}-CP[1Nal][dD]C[Ser(et)][hArg]DWSTP[Hyp]WC-NH2
modifications: linker 1-5-15 via TATA
SMILES: CCOC[C@@H]1NC(=O)[C@@H]2CSCCC(=O)N3CN(CN(C3)C(=O)CCSC[C@H](NC(=O)CC[C@H](C(=O)O)N3CCN(CC(=O)O)CCN(CC(=O)O)CC3)C(=O)N3CCC[C@H]3C(=O)N[C@@H](Cc3cccc4ccccc34)C(=O)N[C@H](CC(=O)O)C(=O)N2)C(=O)CCSC[C@@H](C(N)=O)NC(=O)[C@H](Cc2c[nH]c3ccccc23)NC(=O)[C@@H]2C[C@@H](O)CN2C(=O)[C@@H]2CCCN2C(=O)[C@H]([C@@H](C)O)NC(=O)[C@H](CO)NC(=O)[C@H](Cc2c[nH]c3ccccc23)NC(=O)[C@H](CC(=O)O)NC(=O)[C@H](CCCCNC(=N)N)NC1=O
Consider B18, for which the 50% inhibitory concentration (IC50) in assay [1] amounted to 0.379 µM.
